One block for each substance: values may come before it.
Columns and labels:
[1] = biological target: double His-tagged RAD-TPX2_((7–43)) D11A (Pyrococcus furiosus | human) (UniProt O74036); experiment: BLI; Octet RED96, Anti-Penta-HIS biosensors loaded with double His-tagged RAD-TPX2 proteins (1 μM), untagged Aurora A wild type 0-500 or 5000 nM as analyte; 50 mM HEPES pH 7.4, 500 mM NaCl, 100 mM Mg(CH3COO)2, 0.5 mM ATP, 0.5 mM TCEP, 0.05% P20; 1:1 model
[2] = biological target: double His-tagged RAD-TPX2_((7–43)) F16A (Pyrococcus furiosus | human) (UniProt O74036); experiment: as above
[3] = biological target: double His-tagged RAD-TPX2_((7–43)) F19A (Pyrococcus furiosus | human) (UniProt O74036); experiment: as above
[4] = biological target: double His-tagged RAD-TPX2_((7–43)) F35A (Pyrococcus furiosus | human) (UniProt O74036); experiment: as above
[5] = biological target: double His-tagged RAD-TPX2_((7–43)) W34A (Pyrococcus furiosus | human) (UniProt O74036); experiment: as above
[6] = biological target: double His-tagged RAD-TPX2_((7–43)) Y10A (Pyrococcus furiosus | human) (UniProt O74036); experiment: as above
[7] = biological target: double His-tagged RAD-TPX2_((7–43)) Y8A (Pyrococcus furiosus | human) (UniProt O74036); experiment: as above
[8] = biological target: double His-tagged RAD-TPX2_((7–43)), wild-type TPX2 sequence (Pyrococcus furiosus | human) (UniProt O74036); experiment: as above
[9] = biological target: Alexa Fluor 488-labeled cRAD-CK2β_((186–200)) (Pyrococcus furiosus | human) (UniProt O74036); experiment: fluorescence polarisation; fluorescence anisotropy, direct titration of kinase (CK2α 2 nM-2 μM; Aurora A D274N 2 nM-1.5 μM) into labelled peptide or display protein; 10 mM HEPES pH 7.4, 500 mM NaCl, 1 mM DTT, 0.05% P20; room temperature; 1:1 model
[10] = biological target: Fluorescein-CK2β_((186–200)) peptide (human) (UniProt P67870); experiment: as above
[11] = biological target: synthetic linear CK2β_((186–200)) peptide with C-terminal Gly-Cys (human) (UniProt P67870); experiment: SPR; Biacore T100, CM5, peptides or cRAD display proteins immobilised through their cysteine (240-400 RU), kinase as analyte 2.5 nM-2.5 μM, 25°C, 10 mM HEPES pH 7.4, 500 mM NaCl, 0.05% P20; 1:1 steady-state affinity model; CK2α data analysed at 200 s post-injection
CK2α kinase (human) [12] = biological target: CK2α kinase (human) (UniProt P68400); experiment: SEC; analytical Superdex 75 5/150, 20 mM HEPES pH 7.5, 500 mM NaCl; single proteins and equimolar mixture; fractions checked by SDS-PAGE
CK2α kinase (human), sequence (P68400 2-329): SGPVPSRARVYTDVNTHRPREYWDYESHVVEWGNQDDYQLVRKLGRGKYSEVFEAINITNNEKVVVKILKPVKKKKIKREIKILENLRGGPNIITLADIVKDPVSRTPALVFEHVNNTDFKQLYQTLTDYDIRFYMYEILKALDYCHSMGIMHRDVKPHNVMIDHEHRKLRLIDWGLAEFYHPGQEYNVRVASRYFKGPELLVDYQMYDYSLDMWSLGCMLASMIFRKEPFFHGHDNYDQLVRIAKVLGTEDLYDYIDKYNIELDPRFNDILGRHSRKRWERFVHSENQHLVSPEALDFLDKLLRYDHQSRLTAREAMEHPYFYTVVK

CK2α kinase (human) [13] = biological target: CK2α kinase (human) (UniProt P68400); experiment: AUC; sedimentation velocity, absorbance at 280 nm, 50 000 rpm, 20°C, 20 mM HEPES pH 7.5, 500 mM NaCl; single proteins and mixtures (5 μM each CK2α and RAD-CK2β; 10 μM each Aurora A D274N and RAD-TPX2)
CK2α kinase (human) [14] = biological target: CK2α kinase (human) (UniProt P68400); experiment: ITC; itc200, 25°C, 10 mM HEPES pH 7.4, 500 mM NaCl, 0.05% P20; 50 μM titrant into 5 μM Aurora A D274N, 100 μM CK2β peptide or RAD-CK2β into 10 μM CK2α; single-site model
[15] = biological target: Aurora A_(D274N) kinase domain (human) (UniProt O14965); experiment: as above
Aurora A_(D274N) kinase domain (human), sequence (O14965 122-403 D274N): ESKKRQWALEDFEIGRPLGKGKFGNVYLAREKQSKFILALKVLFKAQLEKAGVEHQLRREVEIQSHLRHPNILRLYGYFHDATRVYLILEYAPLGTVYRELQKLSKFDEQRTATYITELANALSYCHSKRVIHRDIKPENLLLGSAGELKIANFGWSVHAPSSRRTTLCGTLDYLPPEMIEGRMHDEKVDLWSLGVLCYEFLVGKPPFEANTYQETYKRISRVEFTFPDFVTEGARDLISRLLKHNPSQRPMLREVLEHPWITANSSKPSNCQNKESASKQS

[16] = biological target: Aurora A wild-type kinase domain (untagged) (human); experiment: fluorescence polarisation; fluorescence anisotropy competition: 10 nM Alexa Fluor 488-TPX2 peptide and 50 nM Aurora A wild type, RAD-TPX2 variants as competitors 195 nM-25 μM, 25°C, HEPES pH 7.4, 0.1 M Mg(CH3COO)2, 100 mM NaCl, 1 mM ATP, 1 mM DTT, 0.01% P20; Ki from the equation of Wang (1995), given as KD in Table II
Aurora A wild-type kinase domain (untagged) (human), sequence (O14965 133-383): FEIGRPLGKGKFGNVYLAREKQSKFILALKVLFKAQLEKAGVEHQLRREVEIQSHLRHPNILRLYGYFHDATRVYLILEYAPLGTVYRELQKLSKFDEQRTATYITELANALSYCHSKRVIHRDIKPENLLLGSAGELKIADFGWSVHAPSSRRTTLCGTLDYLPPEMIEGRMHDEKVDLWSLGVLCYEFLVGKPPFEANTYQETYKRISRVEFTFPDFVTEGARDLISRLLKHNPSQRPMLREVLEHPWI

CK2α kinase, sequence (P68400 2-329): as the sequence (P68400 2-329) above

Substance: Aurora A wild-type kinase domain (untagged) (domain or fragment)
- Kd [1]: 1100 nM
- Kd [2]: 820 nM
- Kd [3]: 870 nM
- Kd [4]: 1100 nM
- Kd [5]: 840 nM
- Kd [6]: 11000 nM
- Kd [7]: 2800 nM
- Kd [8]: 46 nM

Substance: RAD-CK2β_((186–200)) display protein (as used in AUC and SEC) (from UniProt O74036 108-287; P67870 186-200; O74036 302-349)
- stoichiometry N (CK2α kinase (human) [12]): 1
- stoichiometry N (CK2α kinase (human) [13]): 1

Substance: cRAD-TPX2_((7–43)) display protein (from UniProt O74036 108-287; O74036 302-349)
- Kd [15]: 147 nM

Substance: double His-tagged RAD-TPX2_((7–43)) D11A (from UniProt O74036 108-287; Q9ULW0 7-43; O74036 302-349)
- Kd [16]: > 3200 nM

Substance: double His-tagged RAD-TPX2_((7–43)) F16A (from UniProt O74036 108-287; Q9ULW0 7-43; O74036 302-349)
- Kd [16]: 300 nM

Substance: double His-tagged RAD-TPX2_((7–43)) F19A (from UniProt O74036 108-287; Q9ULW0 7-43; O74036 302-349)
- Kd [16]: 1770 nM

Substance: double His-tagged RAD-TPX2_((7–43)) F35A (from UniProt O74036 108-287; Q9ULW0 7-43; O74036 302-349)
- Kd [16]: 1110 nM

Substance: double His-tagged RAD-TPX2_((7–43)) W34A (from UniProt O74036 108-287; Q9ULW0 7-43; O74036 302-349)
- Kd [16]: 1170 nM

Substance: double His-tagged RAD-TPX2_((7–43)) Y8A (from UniProt O74036 108-287; Q9ULW0 7-43; O74036 302-349)
- Kd [16]: > 3200 nM

Next, values leading:

- Kd [9]: 139 nM
- Kd [10]: 348 nM
- Kd [11]: 407 nM
Substance: CK2α kinase (from UniProt P68400 2-329) (enzyme)

- Kd (CK2α kinase (human) [14]): 140 nM
Substance: cRAD-CK2β_((186–200)) display protein (from UniProt O74036 108-287; P67870 186-200; O74036 302-349)

- Kd [16]: > 3200 nM
Substance: double His-tagged RAD-TPX2_((7–43)) Y10A (from UniProt O74036 108-287; Q9ULW0 7-43; O74036 302-349)

- Kd [16]: 2 nM
Substance: double His-tagged RAD-TPX2_((7–43)), wild-type TPX2 sequence (from UniProt O74036 108-287; O74036 302-349)

- Kd (CK2α kinase (human) [14]): 138 nM
Substance: synthetic linear CK2β_((186–200)) peptide (from UniProt P67870 186-200)
